# Measurements reported in patent US20060009379A1 (GOVERNMENT OF THE UNITED STATES OF AMERICAN AS REPRESENTED …, published 2006).
# B1: HA-tagged nucleostemin mutant dG4 (deletion of the G4 GTP-binding motif, codons 177-180) (other)
# chain: MKRPKLKKASKRMTCHKRYKIQKKVREHHRKLRKEAKKRGHKKPKKDPGVPNSAPFKEALLREAELRKQQLEELKQQQKLDRQKEQERKRKLEISPDDEQSNVETQEESDEPKIKKAKSGKQNPKKLHCQELKKVIEASDIVLEVLDARDPLGCRCPQVEEAVIQSGCKKLVLVLNVPKENLENWLTYLNKELPTVVFKASTNLKNRKKTFKIKKKVVPFQSKLCCGKEALWKLLGGFQQSCGKGVQVGVVGFPNVGKSSIINSLKQERICSVGVSMGLTRSMQIVPLDKQITIIDSPCFIISPCNSPAALALRSPASIEVLRPLEAASAILSQADSQQVVLKYTVPGYKDSLDFFTKLAQRRGLHQKGGSPNVESAAKLLWSEWTGASLGYYCHPPASWNHSPHFNENITAIMKRGFNLEELEKNNAHSIQVLKGPHLTNKILFRSSGLTNGILEEKDIPEESPKQTEDQQDGDDQEHVTGEKNAEISDVTPVEETREMSPGQSTASKPSDRSFILDKMSEEDDAYDFTTDYI
# notes: not shown: HA (hemagglutinin) tag
# B2: HA-tagged nucleostemin mutant dCC (deletion of the coiled-coil domain, codons 61-87) (other)
# chain: MKRPKLKKASKRMTCHKRYKIQKKVREHHRKLRKEAKKRGHKKPKKDPGVPNSAPFKEALRKRKLEISPDDEQSNVETQEESDEPKIKKAKSGKQNPKKLHCQELKKVIEASDIVLEVLDARDPLGCRCPQVEEAVIQSGCKKLVLVLNKSDLVPKENLENWLTYLNKELPTVVFKASTNLKNRKKTFKIKKKVVPFQSKLCCGKEALWKLLGGFQQSCGKGVQVGVVGFPNVGKSSIINSLKQERICSVGVSMGLTRSMQIVPLDKQITIIDSPCFIISPCNSPAALALRSPASIEVLRPLEAASAILSQADSQQVVLKYTVPGYKDSLDFFTKLAQRRGLHQKGGSPNVESAAKLLWSEWTGASLGYYCHPPASWNHSPHFNENITAIMKRGFNLEELEKNNAHSIQVLKGPHLTNKILFRSSGLTNGILEEKDIPEESPKQTEDQQDGDDQEHVTGEKNAEISDVTPVEETREMSPGQSTASKPSDRSFILDKMSEEDDAYDFTTDYI
# notes: as for B1
# B3: HA-tagged nucleostemin mutant dA (deletion of the acidic domain, codons 460-503) (other)
# chain: MKRPKLKKASKRMTCHKRYKIQKKVREHHRKLRKEAKKRGHKKPKKDPGVPNSAPFKEALLREAELRKQQLEELKQQQKLDRQKEQERKRKLEISPDDEQSNVETQEESDEPKIKKAKSGKQNPKKLHCQELKKVIEASDIVLEVLDARDPLGCRCPQVEEAVIQSGCKKLVLVLNKSDLVPKENLENWLTYLNKELPTVVFKASTNLKNRKKTFKIKKKVVPFQSKLCCGKEALWKLLGGFQQSCGKGVQVGVVGFPNVGKSSIINSLKQERICSVGVSMGLTRSMQIVPLDKQITIIDSPCFIISPCNSPAALALRSPASIEVLRPLEAASAILSQADSQQVVLKYTVPGYKDSLDFFTKLAQRRGLHQKGGSPNVESAAKLLWSEWTGASLGYYCHPPASWNHSPHFNENITAIMKRGFNLEELEKNNAHSIQVLKGPHLTNKILFRSSGLTNGILMSPGQSTASKPSDRSFILDKMSEEDDAYDFTTDYI
# notes: as for B1
# B4: HA-tagged nucleostemin mutant dB (deletion of the basic domain, codons 2-46) (other)
# chain: MDPGVPNSAPFKEALLREAELRKQQLEELKQQQKLDRQKEQERKRKLEISPDDEQSNVETQEESDEPKIKKAKSGKQNPKKLHCQELKKVIEASDIVLEVLDARDPLGCRCPQVEEAVIQSGCKKLVLVLNKSDLVPKENLENWLTYLNKELPTVVFKASTNLKNRKKTFKIKKKVVPFQSKLCCGKEALWKLLGGFQQSCGKGVQVGVVGFPNVGKSSIINSLKQERICSVGVSMGLTRSMQIVPLDKQITIIDSPCFIISPCNSPAALALRSPASIEVLRPLEAASAILSQADSQQVVLKYTVPGYKDSLDFFTKLAQRRGLHQKGGSPNVESAAKLLWSEWTGASLGYYCHPPASWNHSPHFNENITAIMKRGFNLEELEKNNAHSIQVLKGPHLTNKILFRSSGLTNGILEEKDIPEESPKQTEDQQDGDDQEHVTGEKNAEISDVTPVEETREMSPGQSTASKPSDRSFILDKMSEEDDAYDFTTDYI
# notes: as for B1
# Target: T1, GST-p53 fusion protein (UniProt P04637 1-393)
# T1 construct: not shown: glutathione S-transferase (GST) fusion partner
# Experiment: GST-p53 pull-down of HA-tagged protein from H1299 lysate, α-HA Western blot
# Method: FIG. 6F is a digital image of mapping of p53-interacting region in nucleostemin by GST pull-down assay. […] The retained proteins (bound) were detected by α-HA Western blot and expressed as ratios to the input.
# To map the interacting region between nucleostemin and p53, HA-tagged mutant proteins were expressed in H1299 cells and incubated with agarose-bound GST-p53 fusion protein in GST pull-down experiments. The amount of mutant proteins retained by GST-p53 fusion was measured by Western blot and presented as the ratio to the input proteins.
# T1 sequence (P04637 whole entry, the tested form may be a part): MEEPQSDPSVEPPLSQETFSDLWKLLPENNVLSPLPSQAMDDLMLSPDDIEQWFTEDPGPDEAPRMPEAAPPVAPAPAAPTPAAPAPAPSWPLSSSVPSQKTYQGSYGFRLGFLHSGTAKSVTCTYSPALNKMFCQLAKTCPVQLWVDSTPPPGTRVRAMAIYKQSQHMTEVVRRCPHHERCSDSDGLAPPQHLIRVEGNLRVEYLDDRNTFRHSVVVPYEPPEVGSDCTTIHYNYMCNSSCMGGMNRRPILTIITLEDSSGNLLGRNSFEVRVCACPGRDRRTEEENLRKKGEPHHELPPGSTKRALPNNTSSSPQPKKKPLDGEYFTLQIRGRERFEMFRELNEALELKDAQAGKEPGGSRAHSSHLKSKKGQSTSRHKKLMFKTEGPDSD
Binder,"fold reduction of the amount bound, against wild-type nucleostemin",other results
B1,–,"fold increase of the amount bound, against wild-type nucleostemin: 1.5 fold"
B2,1.5 fold,–
B3,1.5 fold,–
B4,–,"binding of nucleostemin to p53 (retained protein, ratio to input): 17%"
